Experimental data: US20260242478A1 (published 2026)
Where no end group is shown, it is not given here.

B1: Phage-736 (peptide)
peptide: YCDGHASEYMWKCL
notes: tested as crude clonal phage supernatant
B2: Phage-737 (peptide)
peptide: YCSGHAPEYMAKCL
notes: as for B1
B3: Phage-738 (peptide)
peptide: YCEGHRAEYMEKCL
notes: as for B1
B4: Phage-739 (peptide)
peptide: YCDGHSPDYIWKCL
notes: as for B1
B5: Phage-740 (peptide)
peptide: YCMGHAPEYMEKCL
notes: as for B1
B6: Phage-741 (peptide)
peptide: YCMGHQPEYMQKCL
notes: as for B1
B7: Phage-742 (peptide)
peptide: YCDGHMPEYMEKCL
notes: as for B1
B8: Phage-743 (peptide)
peptide: YCDGHSAEYLAKCL
notes: as for B1
B9: Phage-744 (peptide)
peptide: YCDGHSPEYMTKCL
notes: as for B1
B10: Phage-745 (peptide)
peptide: YCEGHSMEYMAKCL
notes: as for B1
B11: Phage-746 (peptide)
peptide: YCAGHMPEYIDKCL
notes: as for B1
B12: Phage-747 (peptide)
peptide: YCAGHSPEFMEKCL
notes: as for B1
B13: Phage-748 (peptide)
peptide: YCDGHLNEYMEKCL
notes: as for B1
B14: Phage-703 (peptide)
peptide: YCEGHSLEYMGKCL
modifications: cysteine pairing not given here; also: displayed on phage by fusion to pIII, pIII and linker sequence not given here
B15: Phage-704 (peptide)
peptide: YCDGHAPEYMEKCL
modifications: cysteine pairing not given here; also: displayed on phage by fusion to pIII, pIII and linker sequence not given here
B16: Phage-705 (peptide)
peptide: YCDGHMGVYYWKCL
modifications: cysteine pairing not given here; also: displayed on phage by fusion to pIII, pIII and linker sequence not given here
B17: Phage-706 (peptide)
peptide: YCDGHEAQYMSKCL
modifications: cysteine pairing not given here; also: displayed on phage by fusion to pIII, pIII and linker sequence not given here
B18: Phage-707 (peptide)
peptide: YCDGHSHEYMEKCL
modifications: cysteine pairing not given here; also: displayed on phage by fusion to pIII, pIII and linker sequence not given here
B19: Phage-708 (peptide)
peptide: YCQGHLPEYMSKCL
modifications: cysteine pairing not given here; also: displayed on phage by fusion to pIII, pIII and linker sequence not given here

What follows are binders tested against T1, Anti-CD28 Fab (SEQ ID NOs: 696, 697) (assay: phage ELISA; biotinylated anti-CD28 Fab on neutravidin plate, clonal phage supernatant, anti-M13 HRP detection;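 further: crude supernatants of single phage clones picked after panning were screened for binding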).
T1 construct: In the phage ELISA the Fab was biotinylated and captured on neutravidin coated plates
T1 sequence (VH, as listed by the source, chain 1 of 2): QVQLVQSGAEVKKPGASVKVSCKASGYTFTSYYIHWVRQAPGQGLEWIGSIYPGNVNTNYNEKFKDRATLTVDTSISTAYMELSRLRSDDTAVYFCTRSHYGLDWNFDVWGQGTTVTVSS
T1 sequence (VL, as listed by the source, chain 2 of 2): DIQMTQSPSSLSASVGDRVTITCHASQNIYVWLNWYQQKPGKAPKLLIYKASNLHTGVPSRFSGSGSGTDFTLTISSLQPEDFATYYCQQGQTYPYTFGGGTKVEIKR
Experimental: (§1) After panning, phage infected bacteria were plated out and colonies picked into 96 well blocks. Clonal phage was then amplified and separated from bacterial cells via centrifugation.
(§2) Clonal phage were harvested as crude supematants and screened via standard ELISAs. […] Prior to the addition of clonal phage, wells were incubated with blocking buffer and CD28 antigen or blocking buffer alone. Without washing or aspirating, clonal phage supematants were then added to the wells and incubated for a short time. Wells were then washed followed by detection of bound phage using a horse radish conjugated anti-M13 antibody. Clonal phage of interest were then sent for sequence analysis.

Row | Binder | Anti-CD28 Fab signal (phage binding ELISA)
1 | B1 | 1.94
2 | B2 | 1.94
3 | B3 | 1.93
4 | B4 | 1.93
5 | B5 | 1.93
6 | B6 | 1.93
7 | B7 | 1.93
8 | B8 | 1.93
9 | B9 | 1.93
10 | B10 | 1.92
11 | B11 | 1.92
12 | B12 | 1.91
13 | B13 | 1.91

Each binder was assayed against Anti-CD28 Fab (SEQ ID NOs: 696, 697) (assay: phage binding ELISA; biotinylated anti-CD28 Fab on neutravidin plate, clonal phage supernatant, anti-M13 HRP detection).
Target sequence in this assay (VH, as listed by the source, chain 1 of 2): as the sequence (VH, as listed by the source, chain 1 of 2) above
Target sequence in this assay (VL, as listed by the source, chain 2 of 2): as the sequence (VL, as listed by the source, chain 2 of 2) above

Row | Binder | Anti-CD28 Fab (SEQ ID NOs: 696, 697) signal
14 | B14 | 2.02
15 | B15 | 2.01
16 | B16 | 2.01
17 | B17 | 2.01
18 | B18 | 2.01
19 | B19 | 2.01

Molecular target: Anti-CD28 Fab (SEQ ID NOs: 696, 697)
Experiment: as above
Remark: another data set of the same source
Target sequence in this assay (VH, as listed by the source, chain 1 of 2): as the sequence (VH, as listed by the source, chain 1 of 2) above
Target sequence in this assay (VL, as listed by the source, chain 2 of 2): as the sequence (VL, as listed by the source, chain 2 of 2) above

Row | Binder | Anti-CD28 Fab signal (phage binding ELISA)
20 | YCDGHLEQYRAKCL [Phage-723] | 1.96
21 | YCDGHLPEYLGKCL [Phage-724] | 1.96
22 | YCAGHSVEYMAKCL [Phage-725] | 1.96
23 | YCDGHSALYMWKCL [Phage-726] | 1.96
24 | YCDGHSSEYMIKCL [Phage-727] | 1.95
25 | YCDGHLIEYMYKCL [Phage-728] | 1.95
26 | YCDGHSAEYMQKCL [Phage-729] | 1.95
27 | YCDGHLVEYMSKCL [Phage-730] | 1.95
28 | YCEGHLSQYMEKCL [Phage-731] | 1.95
29 | YCDGHSPEHIRKCL [Phage-732] | 1.94
30 | YCAGHLEIYMNKCL [Phage-733] | 1.94
31 | YCEGHLSEYMAKCL [Phage-734] | 1.94
32 | YCEGHLPIYLSKCL [Phage-735] | 1.94

What follows are binders tested against T2, Anti-CD28 Fab (SEQ ID NOs: 696, 697) (assay: phage binding ELISA on anti-CD28 Fab plate; competitor: CD28 antigen pre-incubated in the wells).
T2 construct: The Fab was biotinylated and captured on neutravidin coated plates in the phage ELISA
T2 sequence (VH, as listed by the source, chain 1 of 2): as the sequence (VH, as listed by the source, chain 1 of 2) above
T2 sequence (VL, as listed by the source, chain 2 of 2): as the sequence (VL, as listed by the source, chain 2 of 2) above
Experimental: as §1, §2

Row | Binder | Anti-CD28 Fab signal in the presence of CD28
33 | YCDGHLKEYQEKCL (Tested as clonal phage supernatant) [Phage-749] | 0.09
34 | YCEGHLAQYMWKCL (Tested as clonal phage supernatant) [Phage-750] | 0.12
35 | YCEGHLAVYMQKCL (Tested as clonal phage supernatant) [Phage-751] | 0.1
36 | YCEGHSSEYMEKCL (Tested as clonal phage supernatant) [Phage-752] | 0.06
37 | YCDGHLDIYLAKCL (Tested as clonal phage supernatant) [Phage-753] | 0.08
38 | YCEGHSEEYMSKCL (Tested as clonal phage supernatant) [Phage-754] | 0.07
39 | YCDGHSQEYMWKCL (Tested as clonal phage supernatant) [Phage-755] | 0.09
40 | YCDGHAPEYMKKCL (Tested as clonal phage supernatant) [Phage-756] | 0.06
41 | YCDGHSKEYMHKCL (Tested as clonal phage supernatant) [Phage-757] | 0.07

These binders were tested against Anti-CD28 Fab (SEQ ID NOs: 696, 697) (assay: phage binding ELISA; captured anti-CD28 Fab pre-incubated with CD28 antigen as competitor, anti-M13 HRP detection).
Target sequence in this assay (VH, as listed by the source, chain 1 of 2): as the sequence (VH, as listed by the source, chain 1 of 2) above
Target sequence in this assay (VL, as listed by the source, chain 2 of 2): as the sequence (VL, as listed by the source, chain 2 of 2) above

Row | Binder | Anti-CD28 Fab signal in the presence of CD28
42 | B14 | 0.09
43 | B15 | 0.09
44 | B16 | 0.09
45 | B17 | 0.09
46 | B18 | 0.06
47 | B19 | 0.06

Each binder was assayed against Anti-CD28 Fab (SEQ ID NOs: 696, 697) (assay: phage binding ELISA on anti-CD28 Fab; wells first incubated with CD28 antigen as competitor).
Target sequence in this assay (VH, as listed by the source, chain 1 of 2): as the sequence (VH, as listed by the source, chain 1 of 2) above
Target sequence in this assay (VL, as listed by the source, chain 2 of 2): as the sequence (VL, as listed by the source, chain 2 of 2) above
Experimental: as §1, §2

Row | Binder | Anti-CD28 Fab signal in the presence of CD28
48 | YCDGHLEQYRAKCL [Phage-723] | 0.08
49 | YCDGHLPEYLGKCL [Phage-724] | 0.08
50 | YCAGHSVEYMAKCL [Phage-725] | 0.08
51 | YCDGHSALYMWKCL [Phage-726] | 0.08
52 | YCDGHSSEYMIKCL [Phage-727] | 0.06
53 | YCDGHLIEYMYKCL [Phage-728] | 0.09
54 | YCDGHSAEYMQKCL [Phage-729] | 0.07
55 | YCDGHLVEYMSKCL [Phage-730] | 0.08
56 | YCEGHLSQYMEKCL [Phage-731] | 0.08
57 | YCDGHSPEHIRKCL [Phage-732] | 0.11
58 | YCAGHLEIYMNKCL [Phage-733] | 0.07
59 | YCEGHLSEYMAKCL [Phage-734] | 0.2
60 | YCEGHLPIYLSKCL [Phage-735] | 0.08

The binders below were run against T1, Anti-CD28 Fab (SEQ ID NOs: 696, 697) (assay: phage ELISA; Fab-coated wells pre-incubated with CD28 antigen as competitor, anti-M13 HRP detection;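 further: crude clonal phage supernatants screened by ELISA, comparing wells pre-treated with CD28 antigen in blocker against wells given blocker only, bound phage read via HRP-linked anti-M13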).
Experimental: as §1, §2

Row | Binder | Anti-CD28 Fab signal in the presence of CD28 (phage binding ELISA)
61 | B1 | 0.06
62 | B2 | 0.06
63 | B3 | 0.06
64 | B4 | 0.1
65 | B5 | 0.07
66 | B6 | 0.08
67 | B7 | 0.09
68 | B8 | 0.08
69 | B9 | 0.07
70 | B10 | 0.07
71 | B11 | 0.06
72 | B12 | 0.06
73 | B13 | 0.06

What follows are binders tested against T2, Anti-CD28 Fab (SEQ ID NOs: 696, 697) (assay: phage binding ELISA; biotinylated anti-CD28 Fab on neutravidin plate, bound phage detected with anti-M13 HRP;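 further: crude supernatants of clonal phage screened, wells pretreated with blocking buffer with or without CD28 antigen before brief phage incubation, washed, then bound phage detected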).
Experimental: as §1, §2

Row | Binder | Anti-CD28 Fab (SEQ ID NOs: 696, 697) signal
74 | YCDGHLKEYQEKCL (Tested as clonal phage supernatant) [Phage-749] | 1.91
75 | YCEGHLAQYMWKCL (Tested as clonal phage supernatant) [Phage-750] | 1.91
76 | YCEGHLAVYMQKCL (Tested as clonal phage supernatant) [Phage-751] | 1.91
77 | YCEGHSSEYMEKCL (Tested as clonal phage supernatant) [Phage-752] | 1.91
78 | YCDGHLDIYLAKCL (Tested as clonal phage supernatant) [Phage-753] | 1.91
79 | YCEGHSEEYMSKCL (Tested as clonal phage supernatant) [Phage-754] | 1.91
80 | YCDGHSQEYMWKCL (Tested as clonal phage supernatant) [Phage-755] | 1.9
81 | YCDGHAPEYMKKCL (Tested as clonal phage supernatant) [Phage-756] | 1.9
82 | YCDGHSKEYMHKCL (Tested as clonal phage supernatant) [Phage-757] | 1.9
